Where two headings read alike, the source gives them in different places.
Tests used:
Assay in all cases: SPR; ProteON XPR36, GLC chip; BMP-2 immobilised by amine coupling (1000-2000 RU), CV2 VWC1 proteins as analytes in six concentrations; 25 °C, HBST500 (10 mM HEPES pH 7.4, 500 mM NaCl, 0.005% Tween20); global Langmuir 1:1 fit, KD = koff/kon, or from dose-dependency of equilibrium binding for weak or fast binders; apparent KD
[1] = biological target: E. coli derived recombinant human BMP-2 (human) (UniProt P12643)
E. coli derived recombinant human BMP-2 (human), sequence (P12643 283-396): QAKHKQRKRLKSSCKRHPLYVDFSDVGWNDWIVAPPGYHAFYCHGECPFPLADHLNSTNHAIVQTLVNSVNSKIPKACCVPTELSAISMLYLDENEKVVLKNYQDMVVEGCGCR

[2] = biological target: E. coli derived recombinant human BMP-2 (human) (UniProt P12643); remark: listed apart in the source
[3] = biological target: E. coli derived recombinant human BMP-2 (human) (UniProt P12643); remark: listed apart in the source

Substance | Kd [1] [nM] | koff [1] [s⁻¹] | kon [1] [M⁻¹ s⁻¹] | koff [2] [s⁻¹] | Kd [3] [nM]
CV2 VWC1 E6P (domain or fragment) | 12 | 0.0073 | 630000 |  | 
CV2 VWC1 E10A (domain or fragment) | 13 | 0.0095 | 750000 |  | 
CV2 VWC1 G4A (domain or fragment) | 239 | > 0.05 |  | 0.06 | 
CV2 VWC1 InsA10 (domain or fragment) | 13 | 0.0012 | 910000 |  | 
VWC1 domain (von Willebrand type C domain 1) of Danio rerio Crossveinless 2, wildtype (domain or fragment) | 13 | 0.0087 | 650000 |  | 14

Reference: PMC6270503
